Source: the Immune Epitope Database (IEDB)

Key:
Experiment in all cases: IEDB peptide-MHC binding, purified MHC/competitive/radioactivity; filed as Kd, often an IC50 or EC50 that approximates it; ≥ and ≤ were set here for values at or beyond the usual limits of such assays
HLA-A*33:01 = biological target: HLA-A*33:01
HLA-A*31:01 = biological target: HLA-A*31:01
HLA-A*11:01 = biological target: HLA-A*11:01
HLA-A*03:01 = biological target: HLA-A*03:01
HLA-A*68:01 = biological target: HLA-A*68:01
[1] = source organism: SARS coronavirus Tor2
[2] = source organism: Vaccinia virus WR
[3] = source organism: Dengue virus 2 Jamaica/1409/1983
[4] = source organism: Dengue virus 1 Brazil/97-11/1997
[5] = source organism: Mammarenavirus guanaritoense
[6] = source organism: Mammarenavirus brazilense
[7] = source organism: Dengue virus 4 Philippines/H241/1956
[8] = source organism: Dengue virus 3 Martinique/1243/1999
[9] = source organism: Lymphocytic choriomeningitis virus (strain Armstrong)

Sequence | Kd (HLA-A*33:01; [2]) | Kd (HLA-A*31:01; [2]) | Kd (HLA-A*11:01; [2]) | Kd (HLA-A*03:01; [2]) | Kd (HLA-A*68:01; [2]) | also measured
AFHTPAFDK | – | – | – | – | – | Kd (HLA-A*33:01; [1]): ≥ 33200 nM; Kd (HLA-A*31:01; [1]): 5640 nM; Kd (HLA-A*11:01; [1]): 957 nM; Kd (HLA-A*03:01; [1]): 1430 nM; Kd (HLA-A*68:01; [1]): 8590 nM
AFLLRHYYNK | 1910 nM | 23.8 nM | 225 nM | 749 nM | 5340 nM | –
ALNDTWKMEK | – | – | – | – | – | Kd (HLA-A*11:01; [3]): 392 nM; Kd (HLA-A*03:01; [3]): 82.4 nM
ATCVYNMMGK | – | – | – | – | – | Kd (HLA-A*11:01; [4]): 20.1 nM; Kd (HLA-A*03:01; [4]): 1.91 nM
CAVHLIIYY | ≥ 21100 nM | 4950 nM | 788 nM | 10100 nM | 24.5 nM | –
CCNWLDRCR | – | – | – | – | – | Kd (HLA-A*33:01; [5]): ≥ 56800 nM; Kd (HLA-A*31:01; [5]): 13500 nM; Kd (HLA-A*11:01; [5]): 18100 nM; Kd (HLA-A*03:01; [5]): ≥ 78000 nM; Kd (HLA-A*68:01; [5]): ≥ 77600 nM
CSSLTEEFYH | – | – | – | – | – | Kd (HLA-A*31:01; [6]): 3360 nM; Kd (HLA-A*11:01; [6]): 8680 nM; Kd (HLA-A*68:01; [6]): ≥ 31900 nM
DIEIGNFYIR | 129 nM | 822 nM | 10400 nM | 845 nM | 49 nM | –
DQDALFAYTK | – | – | – | – | – | Kd (HLA-A*33:01; [1]): 9570 nM; Kd (HLA-A*31:01; [1]): 3720 nM; Kd (HLA-A*11:01; [1]): 2600 nM; Kd (HLA-A*03:01; [1]): 4250 nM; Kd (HLA-A*68:01; [1]): 1270 nM
DSMDVLAEK | 1.81 nM | 988 nM | 1.73 nM | 404 nM | 0.122 nM | –
DTSEKYSKGY | ≥ 70000 nM | ≥ 70000 nM | 886 nM | ≥ 70100 nM | 533 nM | –
DTTPFGQQR | – | – | – | – | – | Kd (HLA-A*33:01; [7]): 94.5 nM; Kd (HLA-A*68:01; [7]): 91 nM
EFGRAKGSR | – | – | – | – | – | Kd (HLA-A*33:01; [7]): 38.1 nM
ELRRAAIDR | 1090 nM | 18100 nM | ≥ 77900 nM | ≥ 78000 nM | 83.2 nM | –
ELTLDCEPR | – | – | – | – | – | Kd (HLA-A*33:01; [7]): 32 nM; Kd (HLA-A*68:01; [7]): 229 nM
EQLSKYVEK | 832 nM | 506 nM | 9.75 nM | 149 nM | 161 nM | –
ESIEDKFDY | ≥ 77700 nM | ≥ 34500 nM | 11300 nM | 7530 nM | 1720 nM | –
ESRPFDLIK | 3400 nM | 17900 nM | 1320 nM | 8370 nM | 22.1 nM | –
ETFKIDAVRY | ≥ 70000 nM | ≥ 41300 nM | ≥ 25100 nM | ≥ 70100 nM | 46.9 nM | –
ETSPGEIKPK | ≥ 61900 nM | ≥ 70000 nM | 1520 nM | ≥ 35000 nM | 47.5 nM | –

Sequence | Kd (HLA-A*33:01; [2]) | Kd (HLA-A*31:01; [2]) | Kd (HLA-A*11:01; [2]) | Kd (HLA-A*03:01; [2]) | Kd (HLA-A*68:01; [2]) | also measured
FFTASLFLH | – | – | – | – | – | Kd (HLA-A*11:01; source organism: Mammarenavirus juninense): 247 nM
FFTTSLFLH | – | – | – | – | – | Kd (HLA-A*33:01; [5]): ≥ 77700 nM; Kd (HLA-A*31:01; [5]): 1190 nM; Kd (HLA-A*11:01; [5]): ≥ 77900 nM; Kd (HLA-A*03:01; [5]): ≥ 55700 nM; Kd (HLA-A*68:01; [5]): ≥ 24800 nM
FLEFSNRVY | 8430 nM | 1330 nM | 3210 nM | 43.5 nM | 10100 nM | –
FLKDDTLSK | ≥ 30700 nM | ≥ 77900 nM | ≥ 10000 nM | 347 nM | 638 nM | –
FLKEQHCQK | – | – | – | – | – | Kd (HLA-A*33:01; [1]): 643 nM; Kd (HLA-A*31:01; [1]): 802 nM; Kd (HLA-A*11:01; [1]): 15400 nM; Kd (HLA-A*03:01; [1]): 193 nM; Kd (HLA-A*68:01; [1]): 1320 nM
FLLNKEMYLK | – | – | – | – | – | Kd (HLA-A*33:01; [1]): 2510 nM; Kd (HLA-A*31:01; [1]): 2080 nM; Kd (HLA-A*11:01; [1]): 153 nM; Kd (HLA-A*03:01; [1]): 59.5 nM; Kd (HLA-A*68:01; [1]): 986 nM
FVFPLNSKVK | – | – | – | – | – | Kd (HLA-A*33:01; [1]): 16700 nM; Kd (HLA-A*31:01; [1]): 12800 nM; Kd (HLA-A*11:01; [1]): 113 nM; Kd (HLA-A*03:01; [1]): 164 nM; Kd (HLA-A*68:01; [1]): 8.76 nM
GAMLFLISGK | – | – | – | – | – | Kd (HLA-A*11:01; [8]): 42.6 nM; Kd (HLA-A*03:01; [8]): 3.85 nM
GTSIFAGHLK | – | – | – | – | – | Kd (HLA-A*11:01; [8]): 23.5 nM; Kd (HLA-A*03:01; [8]): 3.86 nM; Kd (HLA-A*68:01; [8]): 114 nM
GVVREFLTR | – | – | – | – | – | Kd (HLA-A*33:01; [1]): 13200 nM; Kd (HLA-A*31:01; [1]): 899 nM; Kd (HLA-A*11:01; [1]): 522 nM; Kd (HLA-A*03:01; [1]): 19000 nM; Kd (HLA-A*68:01; [1]): 186 nM
HINTLIQYR | 16.5 nM | 6.05 nM | 197 nM | 191 nM | 14.8 nM | –
HMIVSKQER | – | – | – | – | – | Kd (HLA-A*33:01; [4]): 8610 nM; Kd (HLA-A*31:01; [4]): ≥ 77900 nM
IILAALFMYY | ≥ 70000 nM | ≥ 70000 nM | 740 nM | 679 nM | 1480 nM | –
IITSTKTIEY | 14100 nM | 6630 nM | 917 nM | 82.2 nM | 5720 nM | –
ILKRWGQLKK | – | – | – | – | – | Kd (HLA-A*03:01; [7]): 38.5 nM
IMASLVLAR | – | – | – | – | – | Kd (HLA-A*33:01; [1]): 560 nM; Kd (HLA-A*31:01; [1]): 18 nM; Kd (HLA-A*11:01; [1]): 104 nM; Kd (HLA-A*03:01; [1]): 10.6 nM; Kd (HLA-A*68:01; [1]): 28.4 nM
IMFMLIFNVK | 1220 nM | 663 nM | 200 nM | 157 nM | 136 nM | –
ISDYSAEVER | 1360 nM | 1730 nM | 3840 nM | ≥ 23400 nM | 229 nM | –
IVTCAMFTCK | – | – | – | – | – | Kd (HLA-A*11:01; [3]): 352 nM; Kd (HLA-A*03:01; [3]): 362 nM
IVTMFEALPH | – | – | – | – | – | Kd (HLA-A*33:01; [9]): 75.1 nM; Kd (HLA-A*31:01; [9]): ≥ 70000 nM; Kd (HLA-A*68:01; [9]): 5840 nM
